# From patent US20260049138A1 (Chugai, published 2026)
# Target: T1, CD3ε homodimer protein (human, UniProt P07766 23-126, limits assumed)
# T1 construct: also called CD3 (CD3ε)
# Test: SPR Biacore T200, CD3ε homodimer on chip;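 note: Light-chain single-residue variant antibodies injected over amine-coupled CD3ε homodimer on a CM4 chip at 25 °C, bound amount divided by that of the GLS3000-containing antibody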
# T1 sequence (P07766 23-126 limits assumed): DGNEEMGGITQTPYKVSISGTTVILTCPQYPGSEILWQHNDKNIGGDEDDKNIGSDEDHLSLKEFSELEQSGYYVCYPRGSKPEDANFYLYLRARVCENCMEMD
row,Binder,ratio of amount bound vs unaltered GLS3000
1,"GLS3000 R29T one-arm antibody (antibody, human IgG1, kappa, L234A L235A, N297A, name in Kabat numbering) heavy: QVQLVESGGGVVQPGRSLRLSCAASGFTFSNAWMHWVRQAPGKGLEWVAQIKAKSNNYATYYAESVKGRFTISRDDSKNSLYLQMNSLKTEDTAVYYCRYVHYGAYYGVDAWGQGTTVTVSSASTKGPSVFPLAPSSKSTSGGTAALGCLVKDYFPEPVTVSWNSGALTSGVHTFPAVLQSSGLYSLSSVVTVPSSSLGTQTYICNVNHKPSNTKVDKKVEPKSCDKTHTCPPCPAPEAAGGPSVFLFPPKPKDTLMISRTPEVTCVVVDVSHEDPEVKFNWYVDGVEVHNAKTKPREEQYASTYRVVSVLTVLHQDWLNGKEYKCKVSNKALPAPIEKTISKAKGQPREPQVYTLPPSRCELTKNQVSLSCAVKGFYPSDIAVEWESNGQPENNYKTTPPVLDSDGSFFLVSKLTVDKSRWQQGNVFSCSVMHEALHNHYTQKSLSLSPDYKDDDDK EPKSSDKTHTCPPCPAPELLGGPSVFLFPPKPKDTLMISRTPEVTCVVVDVSHEDPEVKFNWYVDGVEVHNAKTKPREEQYNSTYRVVSVLTVLHQDWLNGKEYKCKVSNKALPAPIEKTISKAKGQPREPQVCTLPPSRDELTKNQVSLWCLVKGFYPSDIAVEWESNGQPENNYKTTPPVLDSDGSFFLYSKLTVDKSRWQQGNVFSCSVMHEALHNRYTQKSLSLSP light: DIVMTQSPLSLPVTPGEPASISCRSSQSLVHSNTNTYLHWYQQKPGQAPRLLIYKVSNRFSGVPDRFSGSGSGTDFTLKISRVEAEDVGVYYCGQGTQVPYTFGQGTKLEIKRTVAAPSVFIFPPSDEQLKSGTASVVCLLNNFYPREAKVQWKVDNALQSGNSQESVTEQDSKDSTYSLSSTLTLSKADYEKHKVYACEVTHQGLSSPVTKSFNRGEC",0.63
2,"GLS3000 R29V one-arm antibody (antibody, human IgG1, kappa, L234A L235A, N297A, name in Kabat numbering) heavy: QVQLVESGGGVVQPGRSLRLSCAASGFTFSNAWMHWVRQAPGKGLEWVAQIKAKSNNYATYYAESVKGRFTISRDDSKNSLYLQMNSLKTEDTAVYYCRYVHYGAYYGVDAWGQGTTVTVSSASTKGPSVFPLAPSSKSTSGGTAALGCLVKDYFPEPVTVSWNSGALTSGVHTFPAVLQSSGLYSLSSVVTVPSSSLGTQTYICNVNHKPSNTKVDKKVEPKSCDKTHTCPPCPAPEAAGGPSVFLFPPKPKDTLMISRTPEVTCVVVDVSHEDPEVKFNWYVDGVEVHNAKTKPREEQYASTYRVVSVLTVLHQDWLNGKEYKCKVSNKALPAPIEKTISKAKGQPREPQVYTLPPSRCELTKNQVSLSCAVKGFYPSDIAVEWESNGQPENNYKTTPPVLDSDGSFFLVSKLTVDKSRWQQGNVFSCSVMHEALHNHYTQKSLSLSPDYKDDDDK EPKSSDKTHTCPPCPAPELLGGPSVFLFPPKPKDTLMISRTPEVTCVVVDVSHEDPEVKFNWYVDGVEVHNAKTKPREEQYNSTYRVVSVLTVLHQDWLNGKEYKCKVSNKALPAPIEKTISKAKGQPREPQVCTLPPSRDELTKNQVSLWCLVKGFYPSDIAVEWESNGQPENNYKTTPPVLDSDGSFFLYSKLTVDKSRWQQGNVFSCSVMHEALHNRYTQKSLSLSP light: DIVMTQSPLSLPVTPGEPASISCRSSQSLVHSNVNTYLHWYQQKPGQAPRLLIYKVSNRFSGVPDRFSGSGSGTDFTLKISRVEAEDVGVYYCGQGTQVPYTFGQGTKLEIKRTVAAPSVFIFPPSDEQLKSGTASVVCLLNNFYPREAKVQWKVDNALQSGNSQESVTEQDSKDSTYSLSSTLTLSKADYEKHKVYACEVTHQGLSSPVTKSFNRGEC",0.34

# Continued, values first:
row,ratio of amount bound vs unaltered GLS3000,Binder
1,0.69,"GLS3000 R29Y one-arm antibody (antibody, human IgG1, kappa, L234A L235A, N297A, name in Kabat numbering) heavy: QVQLVESGGGVVQPGRSLRLSCAASGFTFSNAWMHWVRQAPGKGLEWVAQIKAKSNNYATYYAESVKGRFTISRDDSKNSLYLQMNSLKTEDTAVYYCRYVHYGAYYGVDAWGQGTTVTVSSASTKGPSVFPLAPSSKSTSGGTAALGCLVKDYFPEPVTVSWNSGALTSGVHTFPAVLQSSGLYSLSSVVTVPSSSLGTQTYICNVNHKPSNTKVDKKVEPKSCDKTHTCPPCPAPEAAGGPSVFLFPPKPKDTLMISRTPEVTCVVVDVSHEDPEVKFNWYVDGVEVHNAKTKPREEQYASTYRVVSVLTVLHQDWLNGKEYKCKVSNKALPAPIEKTISKAKGQPREPQVYTLPPSRCELTKNQVSLSCAVKGFYPSDIAVEWESNGQPENNYKTTPPVLDSDGSFFLVSKLTVDKSRWQQGNVFSCSVMHEALHNHYTQKSLSLSPDYKDDDDK EPKSSDKTHTCPPCPAPELLGGPSVFLFPPKPKDTLMISRTPEVTCVVVDVSHEDPEVKFNWYVDGVEVHNAKTKPREEQYNSTYRVVSVLTVLHQDWLNGKEYKCKVSNKALPAPIEKTISKAKGQPREPQVCTLPPSRDELTKNQVSLWCLVKGFYPSDIAVEWESNGQPENNYKTTPPVLDSDGSFFLYSKLTVDKSRWQQGNVFSCSVMHEALHNRYTQKSLSLSP light: DIVMTQSPLSLPVTPGEPASISCRSSQSLVHSNYNTYLHWYQQKPGQAPRLLIYKVSNRFSGVPDRFSGSGSGTDFTLKISRVEAEDVGVYYCGQGTQVPYTFGQGTKLEIKRTVAAPSVFIFPPSDEQLKSGTASVVCLLNNFYPREAKVQWKVDNALQSGNSQESVTEQDSKDSTYSLSSTLTLSKADYEKHKVYACEVTHQGLSSPVTKSFNRGEC"
2,0.69,"GLS3000 R54A one-arm antibody (antibody, human IgG1, kappa, L234A L235A, N297A, name in Kabat numbering) heavy: QVQLVESGGGVVQPGRSLRLSCAASGFTFSNAWMHWVRQAPGKGLEWVAQIKAKSNNYATYYAESVKGRFTISRDDSKNSLYLQMNSLKTEDTAVYYCRYVHYGAYYGVDAWGQGTTVTVSSASTKGPSVFPLAPSSKSTSGGTAALGCLVKDYFPEPVTVSWNSGALTSGVHTFPAVLQSSGLYSLSSVVTVPSSSLGTQTYICNVNHKPSNTKVDKKVEPKSCDKTHTCPPCPAPEAAGGPSVFLFPPKPKDTLMISRTPEVTCVVVDVSHEDPEVKFNWYVDGVEVHNAKTKPREEQYASTYRVVSVLTVLHQDWLNGKEYKCKVSNKALPAPIEKTISKAKGQPREPQVYTLPPSRCELTKNQVSLSCAVKGFYPSDIAVEWESNGQPENNYKTTPPVLDSDGSFFLVSKLTVDKSRWQQGNVFSCSVMHEALHNHYTQKSLSLSPDYKDDDDK EPKSSDKTHTCPPCPAPELLGGPSVFLFPPKPKDTLMISRTPEVTCVVVDVSHEDPEVKFNWYVDGVEVHNAKTKPREEQYNSTYRVVSVLTVLHQDWLNGKEYKCKVSNKALPAPIEKTISKAKGQPREPQVCTLPPSRDELTKNQVSLWCLVKGFYPSDIAVEWESNGQPENNYKTTPPVLDSDGSFFLYSKLTVDKSRWQQGNVFSCSVMHEALHNRYTQKSLSLSP light: DIVMTQSPLSLPVTPGEPASISCRSSQSLVHSNRNTYLHWYQQKPGQAPRLLIYKVSNAFSGVPDRFSGSGSGTDFTLKISRVEAEDVGVYYCGQGTQVPYTFGQGTKLEIKRTVAAPSVFIFPPSDEQLKSGTASVVCLLNNFYPREAKVQWKVDNALQSGNSQESVTEQDSKDSTYSLSSTLTLSKADYEKHKVYACEVTHQGLSSPVTKSFNRGEC"
